Measurements as given in patent US20140274782A1, “AFFINITY REAGENTS AND METHODS FOR DETECTION, PURIFICATION, AND PROTEOMIC ANALYSIS OF METHYLATED PROTEINS” (The Board of Trustees of the Leland Stanford Junior …, priority 2013, published 2014).

T1: G9a and GLP (Homo sapiens, UniProt Q96KQ7+Q9H9B1)
T1 sequence (Q96KQ7 2-1210 limits assumed): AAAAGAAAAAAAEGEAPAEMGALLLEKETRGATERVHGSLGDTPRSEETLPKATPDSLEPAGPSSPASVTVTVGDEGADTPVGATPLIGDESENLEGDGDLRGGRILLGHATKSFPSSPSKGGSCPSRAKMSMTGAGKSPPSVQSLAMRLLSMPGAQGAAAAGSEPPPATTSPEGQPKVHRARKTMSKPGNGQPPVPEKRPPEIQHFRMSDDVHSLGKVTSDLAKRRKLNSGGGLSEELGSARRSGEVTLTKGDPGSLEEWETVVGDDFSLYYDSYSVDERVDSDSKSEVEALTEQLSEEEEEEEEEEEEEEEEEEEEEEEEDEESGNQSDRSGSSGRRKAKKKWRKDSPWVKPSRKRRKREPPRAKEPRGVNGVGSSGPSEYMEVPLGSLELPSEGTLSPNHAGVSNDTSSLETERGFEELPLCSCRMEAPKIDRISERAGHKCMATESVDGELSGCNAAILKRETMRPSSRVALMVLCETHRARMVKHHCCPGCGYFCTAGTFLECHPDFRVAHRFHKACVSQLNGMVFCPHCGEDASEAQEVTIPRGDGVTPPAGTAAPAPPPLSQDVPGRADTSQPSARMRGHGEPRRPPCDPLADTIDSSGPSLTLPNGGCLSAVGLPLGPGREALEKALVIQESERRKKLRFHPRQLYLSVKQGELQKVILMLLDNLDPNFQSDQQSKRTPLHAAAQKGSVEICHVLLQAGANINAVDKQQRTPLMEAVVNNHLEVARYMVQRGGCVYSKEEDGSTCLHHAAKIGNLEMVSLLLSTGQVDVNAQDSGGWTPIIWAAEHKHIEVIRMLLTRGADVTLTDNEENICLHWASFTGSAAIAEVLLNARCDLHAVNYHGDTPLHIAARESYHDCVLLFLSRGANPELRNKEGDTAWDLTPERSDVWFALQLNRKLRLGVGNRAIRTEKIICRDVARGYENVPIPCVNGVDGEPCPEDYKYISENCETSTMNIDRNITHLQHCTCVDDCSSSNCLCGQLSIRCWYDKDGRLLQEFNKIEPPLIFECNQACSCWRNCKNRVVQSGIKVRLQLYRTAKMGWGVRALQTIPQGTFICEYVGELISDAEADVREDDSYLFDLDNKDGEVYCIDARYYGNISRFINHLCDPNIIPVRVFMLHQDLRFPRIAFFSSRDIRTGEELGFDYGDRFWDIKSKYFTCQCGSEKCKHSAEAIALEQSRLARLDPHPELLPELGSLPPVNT
T1 sequence (Q9H9B1 2-1298 limits assumed): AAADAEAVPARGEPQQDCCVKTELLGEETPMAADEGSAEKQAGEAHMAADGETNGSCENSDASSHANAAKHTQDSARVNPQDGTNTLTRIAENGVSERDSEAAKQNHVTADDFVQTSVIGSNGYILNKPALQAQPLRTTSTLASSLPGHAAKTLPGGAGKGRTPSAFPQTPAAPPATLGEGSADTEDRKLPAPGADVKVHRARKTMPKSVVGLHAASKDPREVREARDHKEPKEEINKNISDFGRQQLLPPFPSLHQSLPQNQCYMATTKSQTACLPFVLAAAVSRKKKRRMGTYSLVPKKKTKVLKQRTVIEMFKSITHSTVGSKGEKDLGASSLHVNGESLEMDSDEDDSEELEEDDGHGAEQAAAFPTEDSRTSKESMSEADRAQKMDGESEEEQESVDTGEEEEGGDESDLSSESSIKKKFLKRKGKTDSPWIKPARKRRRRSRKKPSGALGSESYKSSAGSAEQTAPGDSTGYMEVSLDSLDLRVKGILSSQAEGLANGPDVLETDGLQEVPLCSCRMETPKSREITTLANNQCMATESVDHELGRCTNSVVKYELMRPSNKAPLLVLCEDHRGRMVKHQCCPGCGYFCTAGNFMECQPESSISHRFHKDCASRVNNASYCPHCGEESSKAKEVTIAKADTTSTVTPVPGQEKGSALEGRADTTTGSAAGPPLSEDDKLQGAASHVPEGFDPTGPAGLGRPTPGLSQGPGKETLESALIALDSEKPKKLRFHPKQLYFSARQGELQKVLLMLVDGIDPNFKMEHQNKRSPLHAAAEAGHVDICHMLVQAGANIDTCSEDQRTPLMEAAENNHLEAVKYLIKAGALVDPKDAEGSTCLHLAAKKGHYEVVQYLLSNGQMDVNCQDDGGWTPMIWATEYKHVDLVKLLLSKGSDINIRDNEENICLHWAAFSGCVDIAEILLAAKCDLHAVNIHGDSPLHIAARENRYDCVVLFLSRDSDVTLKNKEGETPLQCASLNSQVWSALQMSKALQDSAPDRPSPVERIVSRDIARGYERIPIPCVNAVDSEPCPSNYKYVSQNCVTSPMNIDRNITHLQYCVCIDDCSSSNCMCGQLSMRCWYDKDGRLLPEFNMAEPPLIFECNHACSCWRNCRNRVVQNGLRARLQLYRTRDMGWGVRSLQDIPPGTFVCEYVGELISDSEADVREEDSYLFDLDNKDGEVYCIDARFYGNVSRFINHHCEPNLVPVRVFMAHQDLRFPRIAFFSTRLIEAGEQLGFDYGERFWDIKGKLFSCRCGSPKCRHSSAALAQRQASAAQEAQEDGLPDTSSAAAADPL


How the values were obtained:
3×MBT domain of L3MBTL1 = assay: Triple SILAC pull-down, 3xMBT/3xMBTD355N ratio (cytoplasmic, nuclear and chromatin fractions of 293T cells); format: binding, human; conditions: SILAC ratio, pull-down 3xMBT vs 3xMBTD355N; for 3xMBT/D355N UNC Heavy: experiment with UNC0638 in heavy SILAC media; for 3xMBT/D355N UNC Light: experiment with UNC0638 in light SILAC media;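 on all read-outs here: proteins quantified with MaxQuant, requiring at least two unique peptides and quantification in both label directions, normalized to the mean of proteins from a digested loading control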
G9a and GLP = molecular target: T1, G9a and GLP; assay: Triple SILAC pull-down after UNC0638 treatment of 293T cells, DMSO/UNC0638 ratio of protein captured by 3×MBT; format: cell-based; set-up: endogenous in cells; host or cells: HEK 293T; conditions: for Relative to UNC0638 UNC Heavy / Relative to UNC0638 UNC Light: SILAC ratio DMSO/UNC0638 of protein pulled down with 3xMBT; for Relative to UNC0638 UNC Heavy: UNC0638 in heavy SILAC media; for Relative to UNC0638 UNC Light: UNC0638 in light SILAC media; for Relative to UNC0638 Average: average of UNC Light and UNC Heavy experiments;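 on all read-outs here: mass spectrometry (Q-Exactive) SILAC quantitation, DMSO/UNC0638 ratio computed after subtracting 3×MBTD355N mutant pull-down background, only proteins with at least twofold 3×MBT over mutant signal considered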

| Molecule | Relative to UNC0638 UNC Heavy (G9a and GLP) | Relative to UNC0638 UNC Light (G9a and GLP) | Relative to UNC0638 Average (G9a and GLP) | 3xMBT/D355N UNC Heavy (3×MBT domain of L3MBTL1) | 3xMBT/D355N UNC Light (3×MBT domain of L3MBTL1) |
| --- | --- | --- | --- | --- | --- |
| GIGYF2 (protein, UniProt Q6Y7W6 2-1299, looked up) GRB10-interacting GYF protein …: AAETQTLNFGPEWLRALSSGGSITSPPLSPALPKYKLADYRYGREEMLALFLKDNKIPSDLLDKEFLPILQEEPLPPLALVPFTEEEQRNFSMSVNSAAVLRLTGRGGGGTVVGAPRGRSSSRGRGRGRGECGFYQRSFDEVEGVFGRGGGREMHRSQSWEERGDRRFEKPGRKDVGRPNFEEGGPTSVGRKHEFIRSESENWRIFREEQNGEDEDGGWRLAGSRRDGERWRPHSPDGPRSAGWREHMERRRRFEFDFRDRDDERGYRRVRSGSGSIDDDRDSLPEWCLEDAEEEMGTFDSSGAFLSLKKVQKEPIPEEQEMDFRPVDEGEECSDSEGSHNEEAKEPDKTNKKEGEKTDRVGVEASEETPQTSSSSARPGTPSDHQSQEASQFERKDEPKTEQTEKAEEETRMENSLPAKVPSRGDEMVADVQQPLSQIPSDTASPLLILPPPVPNPSPTLRPVETPVVGAPGMGSVSTEPDDEEGLKHLEQQAEKMVAYLQDSALDDERLASKLQEHRAKGVSIPLMHEAMQKWYYKDPQGEIQGPFNNQEMAEWFQAGYFTMSLLVKRACDESFQPLGDIMKMWGRVPFSPGPAPPPHMGELDQERLTRQQELTALYQMQHLQYQQFLIQQQYAQVLAQQQKAALSSQQQQQLALLLQQFQTLKMRISDQNIIPSVTRSVSVPDTGSIWELQPTASQPTVWEGGSVWDLPLDTTTPGPALEQLQQLEKAKAAKLEQERREAEMRAKREEEERKRQEELRRQQEEILRRQQEEERKRREEEELARRKQEEALRRQREQEIALRRQREEEERQQQEEALRRLEERRREEEERRKQEELLRKQEEEAAKWAREEEEAQRRLEENRLRMEEEAARLRHEEEERKRKELEVQRQKELMRQRQQQQEALRRLQQQQQQQQLAQMKLPSSSTWGQQSNTTACQSQATLSLAEIQKLEEERERQLREEQRRQQRELMKALQQQQQQQQQKLSGWGNVSKPSGTTKSLLEIQQEEARQMQKQQQQQQQHQQPNRARNNTHSNLHTSIGNSVWGSINTGPPNQWASDLVSSIWSNADTKNSNMGFWDDAVKEVGPRNSTNKNKNNASLSKSVGVSNRQNKKVEEEEKLLKLFQGVNKAQDGFTQWCEQMLHALNTANNLDVPTFVSFLKEVESPYEVHDYIRAYLGDTSEAKEFAKQFLERRAKQKANQQRQQQQLPQQQQQQPPQQPPQQPQQQDSVWGMNHSTLHSVFQTNQSNNQQSNFEAVQSGKKKKKQKMVRADPSLLGFSVNASSERLNMGEIETLDDY | 0.34 log base 2 | 0.05 log base 2 | 0.19 log base 2 | 2.62 log base 2 | 3.04 log base 2 |
| FUS (protein, UniProt P35637 1-526, looked up) RNA-binding protein FUS: MASNDYTQQATQSYGAYPTQPGQGYSQQSSQPYGQQSYSGYSQSTDTSGYGQSSYSSYGQSQNTGYGTQSTPQGYGSTGGYGSSQSSQSSYGQQSSYPGYGQQPAPSSTSGSYGSSSQSSSYGQPQSGSYSQQPSYGGQQQSYGQQQSYNPPQGYGQQNQYNSSSGGGGGGGGGGNYGQDQSSMSSGGGSGGGYGNQDQSGGGGSGGYGQQDRGGRGRGGSGGGGGGGGGGYNRSSGGYEPRGRGGGRGGRGGMGGSDRGGFNKFGGPRDQGSRHDSEQDNSDNNTIFVQGLGENVTIESVADYFKQIGIIKTNKKTGQPMINLYTDRETGKLKGEATVSFDDPPSAKAAIDWFDGKEFSGNPIKVSFATRRADFNRGGGNGRGGRGRGGPMGRGGYGGGGSGGGGRGGFPSGGGGGGGQQRAGDWKCPNPTCENMNFSWRNECNQCKAPKPDGPGGGPGGSHMGGNYGDDRRGGRGGYDRGGYRGRGGDRGGFRGGRGGGDRGGFGPGKMDSRGEHRQDRRERPY | 0.05 log base 2 | 0.34 log base 2 | 0.19 log base 2 | 2.17 log base 2 | 2.10 log base 2 |

Now from value to molecule, other results behind:

| Relative to UNC0638 UNC Heavy (G9a and GLP) | Relative to UNC0638 UNC Light (G9a and GLP) | Relative to UNC0638 Average (G9a and GLP) | Molecule | 3xMBT/D355N UNC Heavy (3×MBT domain of L3MBTL1) | 3xMBT/D355N UNC Light (3×MBT domain of L3MBTL1) |
| --- | --- | --- | --- | --- | --- |
| 0.16 log base 2 | 0.22 log base 2 | 0.19 log base 2 | TOP1 (protein, UniProt P11387 2-765, looked up) DNA topoisomerase 1: SGDHLHNDSQIEADFRLNDSHKHKDKHKDREHRHKEHKKEKDREKSKHSNSEHKDSEKKHKEKEKTKHKDGSSEKHKDKHKDRDKEKRKEEKVRASGDAKIKKEKENGFSSPPQIKDEPEDDGYFVPPKEDIKPLKRPRDEDDADYKPKKIKTEDTKKEKKRKLEEEEDGKLKKPKNKDKDKKVPEPDNKKKKPKKEEEQKWKWWEEERYPEGIKWKFLEHKGPVFAPPYEPLPENVKFYYDGKVMKLSPKAEEVATFFAKMLDHEYTTKEIFRKNFFKDWRKEMTNEEKNIITNLSKCDFTQMSQYFKAQTEARKQMSKEEKLKIKEENEKLLKEYGFCIMDNHKERIANFKIEPPGLFRGRGNHPKMGMLKRRIMPEDIIINCSKDAKVPSPPPGHKWKEVRHDNKVTWLVSWTENIQGSIKYIMLNPSSRIKGEKDWQKYETARRLKKCVDKIRNQYREDWKSKEMKVRQRAVALYFIDKLALRAGNEKEEGETADTVGCCSLRVEHINLHPELDGQEYVVEFDFLGKDSIRYYNKVPVEKRVFKNLQLFMENKQPEDDLFDRLNTGILNKHLQDLMEGLTAKVFRTYNASITLQQQLKELTAPDENIPAKILSYNRANRAVAILCNHQRAPPKTFEKSMMNLQTKIDAKKEQLADARRDLKSAKADAKVMKDAKTKKVVESKKKAVQRLEEQLMKLEVQATDREENKQIALGTSKLNYLDPRITVAWCKKWGVPIEKIYNKTQREKFAWAIDMADEDYEF | 3.47 log base 2 | 3.87 log base 2 |
| 0.25 log base 2 | 0.12 log base 2 | 0.19 log base 2 | GNB1L (protein, UniProt Q9BYB4 1-327, looked up) Guanine nucleotide-binding …: MTAPCPPPPPDPQFVLRGTQSPVHALHFCEGAQAQGRPLLFSGSQSGLVHIWSLQTRRAVTTLDGHGGQCVTWLQTLPQGRQLLSQGRDLKLCLWDLAEGRSAVVDSVCLESVGFCRSSILAGGQPRWTLAVPGRGSDEVQILEMPSKTSVCALKPKADAKLGMPMCLRLWQADCSSRPLLLAGYEDGSVVLWDVSEQKVCSRIACHEEPVMDLDFDSQKARGISGSAGKALAVWSLDWQQALQVRGTHELTNPGIAEVTIRPDRKILATAGWDHRIRVFHWRTMQPLAVLAFHSAAVQCVAFTADGLLAAGSKDQRISLWSLYPRA | 2.24 log base 2 | 2.60 log base 2 |
